Results: patent US20180031580A1, “USE OF IGF-1 AS PROGNOSTIC FACTOR IN CALCIFICATION OF AORTIC VALVES” (THE ASAN FOUNDATION, priority 2015, published 2018)

Legend:
[1] = tested on: aortic valve vascular smooth muscle tissue; experiment: ALP staining of aortic valve vascular smooth muscle tissue, osteocytogenesis level; assay type: in vivo, mice; settings: wild-type or eNOS-deficient mice treated with DPP-4 and IGF-1 at the same time; FIG. 2a
Description: Wild-type mice or eNOS-deficient mice which are animal models with the aortic valve calcification were treated with insulin-like growth factor type 1 (IGF-1) alone or treated with dipeptidyl-peptidase 4 (DPP-4) and IGF-1 at the same time. Then, ALP staining was performed on the aortic valve vascular smooth muscle tissue, thereby comparing the […] level of tissue (FIG. 2a). Here, the aortic valve vascular smooth muscle tissue of the wild-type mice treated with nothing or the eNOS-deficient mice was used as a control group.
FIG. 2a are an image and a graph showing verification of the effect of DPP-4 on an action of IGF-1 inhibiting osteocytogenesis in the aortic valve vascular smooth muscle tissue of the wild-type mice or the eNOS-deficient mice.

ERK or Akt = experiment: Western blot of phosphorylation of intracellular signaling proteins ERK or Akt in aortic valve vascular smooth muscle tissue; assay type: in vivo; settings: eNOS-deficient mice treated with IGF-1 and DPP-4, 0, 5, 15 or 30 minutes; FIG. 2b
Description: Further, in order to confirm whether the activation level of the protein involved in intracellular signaling was changed by osteocytogenesis according to DPP-4, the eNOS-deficient mice were treated with IGF-1 alone for 0, 5, 15 or 30 minutes, or treated with DPP-4 and IGF-1 at the same time, and then, the aortic valve vascular smooth muscle tissue was extracted from these mice. Then, a phosphorylation level of ERK or Akt which is a protein involved in intracellular signaling expressed in the extracted tissues was compared by western blot analysis (FIG. 2b). Here, β-actin was used as an internal control group.
FIG. 2b is a Western blot analysis image showing a change in the phosphorylation level of ERK or Akt which is the protein involved in intracellular signaling according to whether the DPP-4 is treated in the eNOS-deficient mice treated with IGF-1.

B1: DPP-4: antigenic enzyme, membrane-bound glycoprotein, also referred to as CD26; cleaves two N-terminal peptides including proline (protein)
chain: NKGTDDATADSRKTYTLTDYLKNTYRLKLYSLRWISDHEYLYKQENNILVFNAEYGNSSVFLENSTFDEFGHSINDYSISPDGQFILLEYNYVKQWRHSYTASYDIYDLNKRQLITEERIPNNTQWVTWSPVGHKLAYVWNNDIYVKIEPNLPSYRITWTGKEDIIYNGITDWVYEEEVFSAYSALWWSPNGTFLAYAQFNDTEVPLIEYSFYSDESLQYPKTVRVPYPKAGAVNPTVKFFVVNTDSLSSVTNATSIQITAPASMLIGDHYLCDVTWATQERISLQWLRRIQNYSVMDICDYDESSGRWNCLVARQHIEMSTTGWVGRFRPSEPHFTLDGNSFYKIISNEEGYRHICYFQIDKKDCTFITKGTWEVIGIEALTSDYLYYISNEYKGMPGGRNLYKIQLSDYTKVTCLSCELNPERCQYYSVSFSKEAKYYQLRCSGPGLPLYTLHSSVNDKGLRVLEDNSALDKMLQNVQMPSKKLDFIILNETKFWYQMILPPHFDKSKKYPLLLDVYAGPCSQKADTVFRLNWATYLASTENIIVASFDGRGSGYQGDKIMHAINRRLGTFEVEDQIEAARQFSKMGFVDNKRIAIWGWSYGGYVTSMVLGSGSGVFKCGIAVAPVSRWEYYDSVYTERYMGLPTPEDNLDHYRNSTVMSRAENFKQVEYLLIHGTADDNVHFQQSAQISKALVDVGVDFQAMWYTDEDHGIASSTAHQHIYTHMSHFIKQCFSLP
osteocytogenesis of aortic valve vascular smooth muscle tissue (ALP staining) [1]: intensified
phosphorylation level of ERK or Akt (ERK or Akt): reduced
